The results in this text go back to PMC8913309 (The Journal of Biological Chemistry, 2022).

This data set deals with the molecule itself. Kind of data set: SEC. (SEC sorts molecules by how far they enter the pores of the column.)

The stoichiometry N is a count of units in the complex or per binding partner.

B1: Plasmodium falciparum phosphoglycerate mutase 1 (PfPGM1), recombinant His6-tagged WT protein (enzyme)
chain: MTTYTLVLLRHGESTWNKENKFTGWTDVPLSEKGEEEAIAAGKYLKEKNFKFDVVYTSVLKRAICTAWNVLKTADLLHVPVVKTWRLNERHYGSLQGLNKSETAKKYGEEQVKIWRRSYDIPPPKLDKEDNRWPGHNVVYKNVPKDALPFTECLKDTVERVLPFWFDHIAPDILANKKVMVAAHGNSLRGLVKHLDNLSEADVLELNIPTGVPLVYELDENLKPIKHYYLLDSEELKKKMDEVANQGKAK
Turning to B1, the “stoichiometry N” value was found to be 4.

B2: PfPGM1 P163A, recombinant His6-tagged mutant protein (enzyme, Plasmodium falciparum)
chain: MTTYTLVLLRHGESTWNKENKFTGWTDVPLSEKGEEEAIAAGKYLKEKNFKFDVVYTSVLKRAICTAWNVLKTADLLHVPVVKTWRLNERHYGSLQGLNKSETAKKYGEEQVKIWRRSYDIPPPKLDKEDNRWPGHNVVYKNVPKDALPFTECLKDTVERVLAFWFDHIAPDILANKKVMVAAHGNSLRGLVKHLDNLSEADVLELNIPTGVPLVYELDENLKPIKHYYLLDSEELKKKMDEVANQGKAK
With B2, the “stoichiometry N” value stood at 2.

B3: PfPGM1 K100R, recombinant His6-tagged mutant protein (enzyme, Plasmodium falciparum)
chain: MTTYTLVLLRHGESTWNKENKFTGWTDVPLSEKGEEEAIAAGKYLKEKNFKFDVVYTSVLKRAICTAWNVLKTADLLHVPVVKTWRLNERHYGSLQGLNRSETAKKYGEEQVKIWRRSYDIPPPKLDKEDNRWPGHNVVYKNVPKDALPFTECLKDTVERVLPFWFDHIAPDILANKKVMVAAHGNSLRGLVKHLDNLSEADVLELNIPTGVPLVYELDENLKPIKHYYLLDSEELKKKMDEVANQGKAK
Regarding B3, the “stoichiometry N” value turned out to be 4.
